{"source": "patent US20260234254A1", "about": "(APTEVO RESEARCH AND DEVELOPMENT, published 2026)", "target": "T1, recombinant monomeric CD123 ectodomain (ECD) with an affinity tag on the C-terminus (UniProt P26951 19-305)", "T1 construct": "extracellular domain; also called CD123 ECD; extracellular domain of CD123", "T1 sequence (looked up)": "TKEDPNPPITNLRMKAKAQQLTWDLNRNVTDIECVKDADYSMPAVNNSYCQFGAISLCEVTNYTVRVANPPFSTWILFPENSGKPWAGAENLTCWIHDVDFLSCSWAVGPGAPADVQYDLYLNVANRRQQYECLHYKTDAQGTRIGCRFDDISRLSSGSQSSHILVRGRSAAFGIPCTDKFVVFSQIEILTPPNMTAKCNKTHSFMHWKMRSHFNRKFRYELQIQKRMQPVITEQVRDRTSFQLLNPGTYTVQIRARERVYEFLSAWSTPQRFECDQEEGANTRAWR", "experiment": "SPR (Biacore T200), bispecific captured by anti-human Fc F(ab')2, CD123 ECD 3-48 nM as analyte, 25 °C, 1:1 model", "description": "SPR binding studies of bispecific molecules to recombinant monomeric CD123 ectodomain (ECD) were conducted at 25° C. in HBS-EP+ buffer. […] The bispecific molecules at 200 nM in HBS-EP+ buffer were captured by the immobilized anti-Fc F(ab′)2 fragment at a flow rate of 30 μL/min for 120 sec to reach a stable 2000 RU response. […] Optimal regeneration was achieved by one injection of 10 mM glycine (pH 1.7) at a flow rate of 30 μL/min for 15 sec followed by one injection of 50 mM NaOH at 30 μL/min for 15 sec. A two minute stabilization with HBS-EP+ buffer was completed before the subsequent run.\nSensorgrams obtained from kinetic SPR measurements were analyzed by the double subtraction method. The signal from the reference flow cell was subtracted from the analyte binding response obtained from flow cells with immobilized or captured ligands. Buffer reference responses were then averaged from multiple injections. […] All sensorgrams were fitted using a simple one-to-one binding model."}
{"binder": "OMT1 VHVL x TSC456 scFv-Fc-scFv TRI129 (bispecific antibody, Single-chain scFv-Fc-scFv, anti-CD123 (OMT1, VH-VL) x anti-CD3ε (TSC456)) EVQLLESGGGLVQPGGSLRLSCAASGFTFSSYGMSWVRQAPGKGLEGVSAISGSGGSTYYADSVKGRFTISRDNSKNTLYLQMNSLRAEDTAVYYCAKEKLRYFDWLSDAFDIWGQGTMVTVSSGGGGSGGGGSGGGGSGGGGSDIVMTQSPDSLAVSLGERATINCKSSHSVLYSSNNKNYLAWYQQKPGQPPKLLIYWASTRESGVPDRFSGSGSGTDFTLTISSLQAEDVAVYYCQQYYSTPPTTFGGGTKVEIKSSSEPKSSDKTHTCPPCPAPEAAGAPSVFLFPPKPKDTLMISRTPEVTCVVVDVSHEDPEVKFNWYVDGVEVHNAKTKPREEQYNSTYRVVSVLTVLHQDWLNGKEYKCAVSNKALPAPIEKTISKAKGQPREPQVYTLPPSRDELTKNQVSLTCLVKGFYPSDIAVEWESNGQPENNYKTTPPVLDSDGSFFLYSKLTVDKSRWQQGNVFSCSVMHEALHNHYTQKSLSLSPGSGGGGSGGGGSGGGGSPSQVQLVQSGPEVKKPGSSVKVSCKASGYTFSRSTMHWVRQAPGQGLEWIGYINPSSAYTNYNQKFKDRVTITADKSTSTAYMELSSLRSEDTAVYYCARPQVHYDYNGFPYWGQGTLVTVSSGGGGSGGGGSGGGGSGGGGSDIQMTQSPSTLSASVGDRVTMTCSASSSVSYMNWYQQKPGKAPKRWIYDSSKLASGVPSRFSGSGSGTDYTLTISSLQPDDFATYYCQQWSRNPPTFGGGTKVEIKRS", "values": [{"measurement": "Kd", "result": 11.4, "unit": "nM"}, {"measurement": "koff", "result": 0.00205, "unit": "s⁻¹"}, {"measurement": "kon", "result": 179000, "unit": "M⁻¹ s⁻¹"}]}
